Key:
[1] = tested on: CC(=O)N[C@H]1[C@@H](OP(=O)(O)OP(=O)(O)OC[C@H]2O[C@@H](n3ccc(=O)[nH]c3=O)[C@H](O)[C@@H]2O)O[C@H](CO)[C@H](O)[C@@H]1O; assay: purified protein, by the assay type; conditions: other: reverse direction, PP = 1 mM; 37.0 °C
[2] = tested on: CC(=O)NC1C(OP(=O)(O)OP(=O)(O)OCC2OC(n3ccc(=O)[nH]c3=O)C(O)C2O)OC(CO)C(O)C1O; assay: purified protein, by the assay type; conditions: other: reverse direction, PP = 1 mM; 37.0 °C

Chain of Pyrophosphorylase (Sus scrofa) (chain, as listed by the source): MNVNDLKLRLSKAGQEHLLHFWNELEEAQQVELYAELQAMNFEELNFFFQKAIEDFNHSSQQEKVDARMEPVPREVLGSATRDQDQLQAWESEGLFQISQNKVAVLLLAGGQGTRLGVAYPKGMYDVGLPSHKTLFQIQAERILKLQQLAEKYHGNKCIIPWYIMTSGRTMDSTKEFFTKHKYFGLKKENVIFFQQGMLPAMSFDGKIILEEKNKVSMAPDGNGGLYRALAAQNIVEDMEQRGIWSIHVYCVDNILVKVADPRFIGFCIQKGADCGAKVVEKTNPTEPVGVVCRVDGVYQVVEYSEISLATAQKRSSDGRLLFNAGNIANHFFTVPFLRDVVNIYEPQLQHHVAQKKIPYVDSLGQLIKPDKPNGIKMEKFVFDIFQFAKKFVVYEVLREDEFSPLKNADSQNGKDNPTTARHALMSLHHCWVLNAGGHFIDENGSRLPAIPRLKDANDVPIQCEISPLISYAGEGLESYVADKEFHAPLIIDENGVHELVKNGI

Pyrophosphorylase (Sus scrofa) gave a Km [1] of 200 µM and a Km [2] of 45 µM.

From patent US5753483A, “Purified homogeneous UDP-GlcNAc (GalNAc) pyrophosphorylase” (priority 1995, dated 1998)
